This is an account of results in the supplement of paper PMC7125110.

± gives the standard error. Fewer inactive variants are shown than the library holds. Bounds are passed on as bounds.

B1: glmS ribozyme (parent)
chain: AUAAAAGCGCCAGAACUACAGAAAUGUAGUUGACGAGGAGGAGGUUUAUCGAAUUUUCGGCGGAUGCCUCCAAA

Conditions in all cases: with glucosamine-6-phosphate
The variants in data set [1] derive from B1. The data set is described as follows: self-cleavage kobs at 40 uM GlcN6P; higher = faster cleavage; RNA array. The method in brief:
(§1)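 On sequenced MiSeq chips, barcoded ribozyme variants were made in situ by E. coli RNA polymerase and followed at 37 °C through a hybridised Cy3 probe. Glucosamine-6-phosphate was flowed in at 40 μM to 10 mM in HEPES/KCl/Mg(OAc)2 buffer. Exponential fits to normalised per-tile medians gave kobs, and weighted Michaelis–Menten fits gave kcat and KM.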

The variants in data set [2] derive from B1. The data set is described as follows: self-cleavage kobs at 160 uM GlcN6P; higher = faster cleavage; RNA array. In outline: as §1
Data set [3] covers variants of B1. The data set is described as follows: self-cleavage kobs at 640 uM GlcN6P; higher = faster cleavage; RNA array. In outline: as §1
Variants of B1 are the subject of data set [4]. The data set can be described thus: self-cleavage kobs at 10000 uM GlcN6P; higher = faster cleavage; RNA array. In outline: as §1
In data set [5] the parent is B1. The data set can be described thus: self-cleavage kobs at 2500 uM GlcN6P; higher = faster cleavage; RNA array. In outline: as §1

For G32C U45C U69A, the “self-cleavage kobs at 40 uM GlcN6P” value with glucosamine-6-phosphate [1] is less than 1e-05 s⁻¹.

Regarding C34U G41C G59A A64G, the “self-cleavage kobs at 40 uM GlcN6P” value in the data set with glucosamine-6-phosphate [1] was less than 1e-05 s⁻¹. Also, the “self-cleavage kobs at 160 uM GlcN6P” value with glucosamine-6-phosphate [2] was less than 1e-05 s⁻¹. In addition, in the data set with glucosamine-6-phosphate [3], the “self-cleavage kobs at 640 uM GlcN6P” value was less than 1e-05 s⁻¹.

Take G40U G62C: in the data set with glucosamine-6-phosphate [1], the “self-cleavage kobs at 40 uM GlcN6P” value is less than 1e-05 s⁻¹. Further, the “self-cleavage kobs at 160 uM GlcN6P” value with glucosamine-6-phosphate [2] was less than 1e-05 s⁻¹. The “self-cleavage kobs at 640 uM GlcN6P” value with glucosamine-6-phosphate [3] was less than 1e-05 s⁻¹. The “self-cleavage kobs at 10000 uM GlcN6P” value with glucosamine-6-phosphate [4] was less than 1e-05 s⁻¹.

In the case of G60C U69C, the “self-cleavage kobs at 40 uM GlcN6P” value with glucosamine-6-phosphate [1] is less than 1e-05 s⁻¹. Further, in the data set with glucosamine-6-phosphate [4], the “self-cleavage kobs at 10000 uM GlcN6P” value was less than 1e-05 s⁻¹.

As for C8G A15G, the “self-cleavage kobs at 40 uM GlcN6P” value in the data set with glucosamine-6-phosphate [1] was less than 1e-05 s⁻¹. In the data set with glucosamine-6-phosphate [2], the “self-cleavage kobs at 160 uM GlcN6P” value is less than 1e-05 s⁻¹. Moreover, the “self-cleavage kobs at 640 uM GlcN6P” value in the data set with glucosamine-6-phosphate [3] was less than 1e-05 s⁻¹. In addition, the “self-cleavage kobs at 2500 uM GlcN6P” value with glucosamine-6-phosphate [5] is less than 1e-05 s⁻¹. Moreover, the “self-cleavage kobs at 10000 uM GlcN6P” value in the data set with glucosamine-6-phosphate [4] was less than 1e-05 s⁻¹.

Take A15G U31G U69C: in the data set with glucosamine-6-phosphate [1], the “self-cleavage kobs at 40 uM GlcN6P” value stood at 4.45e-05 ± 1.7e-05 s⁻¹.

For the variant U31C A48U C50A A53C U65G G66A, the “self-cleavage kobs at 40 uM GlcN6P” value in the data set with glucosamine-6-phosphate [1] was less than 1e-05 s⁻¹. The “self-cleavage kobs at 2500 uM GlcN6P” value in the data set with glucosamine-6-phosphate [5] was less than 1e-05 s⁻¹. In the data set with glucosamine-6-phosphate [4], the “self-cleavage kobs at 10000 uM GlcN6P” value was less than 1e-05 s⁻¹.

In the case of A48U G59A G66U, the “self-cleavage kobs at 40 uM GlcN6P” value in the data set with glucosamine-6-phosphate [1] was less than 1e-05 s⁻¹. Besides, in the data set with glucosamine-6-phosphate [2], the “self-cleavage kobs at 160 uM GlcN6P” value was less than 1e-05 s⁻¹. Also, the “self-cleavage kobs at 640 uM GlcN6P” value in the data set with glucosamine-6-phosphate [3] was less than 1e-05 s⁻¹. For the same variant, the “self-cleavage kobs at 10000 uM GlcN6P” value in the data set with glucosamine-6-phosphate [4] was less than 1e-05 s⁻¹.

For the variant G9U G40C, the “self-cleavage kobs at 40 uM GlcN6P” value in the data set with glucosamine-6-phosphate [1] was less than 1e-05 s⁻¹. The “self-cleavage kobs at 160 uM GlcN6P” value with glucosamine-6-phosphate [2] is less than 1e-05 s⁻¹. In the data set with glucosamine-6-phosphate [3], the “self-cleavage kobs at 640 uM GlcN6P” value was less than 1e-05 s⁻¹. Besides, in the data set with glucosamine-6-phosphate [4], the “self-cleavage kobs at 10000 uM GlcN6P” value was less than 1e-05 s⁻¹.

With A33U A48G A52U, the “self-cleavage kobs at 40 uM GlcN6P” value with glucosamine-6-phosphate [1] was less than 1e-05 s⁻¹.

On to C8A A15C, for which the “self-cleavage kobs at 40 uM GlcN6P” value with glucosamine-6-phosphate [1] is less than 1e-05 s⁻¹. For the same variant, the “self-cleavage kobs at 160 uM GlcN6P” value with glucosamine-6-phosphate [2] was less than 1e-05 s⁻¹. In addition, the “self-cleavage kobs at 640 uM GlcN6P” value with glucosamine-6-phosphate [3] is less than 1e-05 s⁻¹. For the same variant, in the data set with glucosamine-6-phosphate [5], the “self-cleavage kobs at 2500 uM GlcN6P” value was less than 1e-05 s⁻¹.

As for A12G G32C G37U C71G, the “self-cleavage kobs at 40 uM GlcN6P” value with glucosamine-6-phosphate [1] was less than 1e-05 s⁻¹.

For the variant C11A A39G U45A A52U, in the data set with glucosamine-6-phosphate [1], the “self-cleavage kobs at 40 uM GlcN6P” value is less than 1e-05 s⁻¹.

For A33U G59U G62A, the “self-cleavage kobs at 40 uM GlcN6P” value in the data set with glucosamine-6-phosphate [1] is less than 1e-05 s⁻¹.

Consider C34A C50G C71U, for which the “self-cleavage kobs at 40 uM GlcN6P” value with glucosamine-6-phosphate [1] stood at 6.66e-05 ± 3e-05 s⁻¹. In addition, the “self-cleavage kobs at 160 uM GlcN6P” value with glucosamine-6-phosphate [2] turned out to be 0.000155 ± 6.7e-05 s⁻¹. In addition, the “self-cleavage kobs at 640 uM GlcN6P” value in the data set with glucosamine-6-phosphate [3] was found to be 0.000408 ± 0.0001 s⁻¹. Also, the “self-cleavage kobs at 2500 uM GlcN6P” value with glucosamine-6-phosphate [5] stood at 0.000247 ± 0.00012 s⁻¹. Also, the “self-cleavage kobs at 10000 uM GlcN6P” value with glucosamine-6-phosphate [4] turned out to be 6.4e-05 ± 2.5e-05 s⁻¹.

For G7C G59C, the “self-cleavage kobs at 40 uM GlcN6P” value with glucosamine-6-phosphate [1] is less than 1e-05 s⁻¹. In addition, the “self-cleavage kobs at 160 uM GlcN6P” value with glucosamine-6-phosphate [2] is less than 1e-05 s⁻¹. Besides, in the data set with glucosamine-6-phosphate [3], the “self-cleavage kobs at 640 uM GlcN6P” value was less than 1e-05 s⁻¹. For the same variant, the “self-cleavage kobs at 2500 uM GlcN6P” value in the data set with glucosamine-6-phosphate [5] was less than 1e-05 s⁻¹. Also, the “self-cleavage kobs at 10000 uM GlcN6P” value in the data set with glucosamine-6-phosphate [4] was less than 1e-05 s⁻¹.

With A6C G40C, the “self-cleavage kobs at 40 uM GlcN6P” value with glucosamine-6-phosphate [1] was less than 1e-05 s⁻¹. Also, the “self-cleavage kobs at 640 uM GlcN6P” value with glucosamine-6-phosphate [3] was less than 1e-05 s⁻¹. Moreover, the “self-cleavage kobs at 2500 uM GlcN6P” value with glucosamine-6-phosphate [5] was less than 1e-05 s⁻¹.

As for G13A G43C U65G, in the data set with glucosamine-6-phosphate [1], the “self-cleavage kobs at 40 uM GlcN6P” value is less than 1e-05 s⁻¹. For the same variant, the “self-cleavage kobs at 2500 uM GlcN6P” value with glucosamine-6-phosphate [5] is less than 1e-05 s⁻¹.

In the case of C10A G37C G38A A64U U65C, the “self-cleavage kobs at 40 uM GlcN6P” value with glucosamine-6-phosphate [1] was less than 1e-05 s⁻¹. Also, the “self-cleavage kobs at 2500 uM GlcN6P” value with glucosamine-6-phosphate [5] was less than 1e-05 s⁻¹.

For C10U C11A A39C A42U U47C G66C, the “self-cleavage kobs at 40 uM GlcN6P” value with glucosamine-6-phosphate [1] was less than 1e-05 s⁻¹.

For A12C U54C, in the data set with glucosamine-6-phosphate [1], the “self-cleavage kobs at 40 uM GlcN6P” value came out at 0.00107 ± 0.00014 s⁻¹. In the data set with glucosamine-6-phosphate [2], the “self-cleavage kobs at 160 uM GlcN6P” value came out at 0.00117 ± 0.00027 s⁻¹. The “self-cleavage kobs at 640 uM GlcN6P” value in the data set with glucosamine-6-phosphate [3] stood at 0.0063 ± 0.0021 s⁻¹. Further, the “self-cleavage kobs at 2500 uM GlcN6P” value in the data set with glucosamine-6-phosphate [5] worked out at 0.0137 ± 0.0032 s⁻¹. Also, in the data set with glucosamine-6-phosphate [4], the “self-cleavage kobs at 10000 uM GlcN6P” value is 0.0203 ± 0.0043 s⁻¹.

For G32C G40A C50U C68A, the “self-cleavage kobs at 40 uM GlcN6P” value with glucosamine-6-phosphate [1] is less than 1e-05 s⁻¹. Further, the “self-cleavage kobs at 10000 uM GlcN6P” value with glucosamine-6-phosphate [4] was less than 1e-05 s⁻¹.

As for G40U C68A, the “self-cleavage kobs at 40 uM GlcN6P” value with glucosamine-6-phosphate [1] was less than 1e-05 s⁻¹. The “self-cleavage kobs at 160 uM GlcN6P” value with glucosamine-6-phosphate [2] was less than 1e-05 s⁻¹. Besides, the “self-cleavage kobs at 640 uM GlcN6P” value in the data set with glucosamine-6-phosphate [3] is less than 1e-05 s⁻¹. Besides, the “self-cleavage kobs at 2500 uM GlcN6P” value with glucosamine-6-phosphate [5] is less than 1e-05 s⁻¹. The “self-cleavage kobs at 10000 uM GlcN6P” value with glucosamine-6-phosphate [4] is less than 1e-05 s⁻¹.
